In patent US12359237:
Where a chain is given by its changes, count along the chain named.

Assays:
[1] = test system: T1, 4SCSC7_4AAAA7 precursor peptide
T1 sequence: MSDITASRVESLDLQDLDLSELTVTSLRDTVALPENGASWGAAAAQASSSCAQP

[2] = test system: T2, C13A mutant precursor peptide of LazA*
T2 sequence: T1 sequence with A42S, A43C, A44S, A45C, C51A

[3] = test system: T3, S10A mutant precursor peptide of LazA*
T3 sequence: T1 sequence with A42S, A43C, A44S, A45C, S48A

[4] = test system: T4, S11A mutant precursor peptide of LazA*
T4 sequence: T1 sequence with A42S, A43C, A44S, A45C, S49A

[5] = test system: T5, S12A mutant precursor peptide of LazA*
T5 sequence: T1 sequence with A42S, A43C, A44S, A45C, S50A

LazC (macrocyclase of lactazole biosynthesis, His-Tag-bound recombinant protein)
leader peptide elimination (LC-MS chromatogram of the leader peptide cleaved off through LazC reaction) [1]: Leader peptide elimination was also seen in the 4SCSC7_4AAAA7 precursor peptide at a level equivalent to LazA* | leader peptide cleaved off through LazC reaction (LC-MS chromatogram) [2]: A leader peptide cleaved off was slightly seen in S11A and C13A | leader peptide cleaved off through LazC reaction (LC-MS chromatogram) [3]: Ser (10) and Cys (13) are also relatively important | leader peptide cleaved off through LazC reaction (LC-MS chromatogram) [4]: such a leader peptide was hardly seen in S11A and S12A | leader peptide cleaved off through LazC reaction (LC-MS chromatogram) [5]: such a leader peptide was hardly seen in S11A and S12A
